Source: patent EP4775595A1 (Beijing Tuo Jie Biopharmaceutical Co. Ltd., dated 2026)
Substitutions are numbered along the chain they refer to.

B1: PHP1003 (Suzhou PRO-HEAL, CN113512116) (antibody, V domains shown)
VH: QVQLQESGPGLVKPSGTLSLTCAVSGGSISSSNWWSWVRQPPGKGLEWIGEIYHSGSTNYNPSLKSRVTISVDKSKNQFSLKLSSVTAADTAVYYCARWTGRTDAFDIWGQGTMVTVSS
VL: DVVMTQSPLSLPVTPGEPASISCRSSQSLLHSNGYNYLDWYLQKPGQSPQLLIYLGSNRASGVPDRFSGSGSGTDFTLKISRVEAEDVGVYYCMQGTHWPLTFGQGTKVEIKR
notes: Positive control anti-IGF-1R antibody
B2: IG05-hu1 (VHH)
VHH: EVQLVESGGGLVQPGGSLRLSCTASGLTFGTFGMAWFRQAPGKEREGVSAISASSGRTYYADSVKGRFTISRDNSKNTLYLQMNSLRAEDTAVYYCAVRSKNGAGYGFWYEARLYGYWGQGTLVTVSS
notes: Humanized IG05; also called IG05-hul
B3: IG05 (VHH)
VHH: B2 VHH with E1Q, P14A, S75A, N84D, S85A, R87K, A88P, V93M, L123Q
notes: Camel single-domain antibody against IGF-1R
B4: IG05-hu2 (VHH)
VHH: B2 VHH with S75A
notes: Humanized IG05
B5: IG05-hu3 (VHH)
VHH: B2 VHH with N84D, S85A
notes: Humanized IG05
B6: IG05-hu4 (VHH)
VHH: B2 VHH with T23A
notes: Humanized IG05
B7: IG05-hu5 (VHH)
VHH: B2 VHH with T23A, L27F
notes: Humanized IG05
B8: IG06-hu4 (VHH)
VHH: EVQLVESGGGLVQPGGSLRLSCAASRYIVSTRCLGWVRQAPGKEREEVSTIDTAGRPTYADSVKGRFTISRDGAKNFLYLQMNSLRAEDTAVYYCAAASSDNCRYFPSNLGQGTLVTVSS
B9: IG06 (VHH)
VHH: QVQLVESGGGSVQAGGSLRLSCAASRYIVSTRCLGWVRQAPGNEREEIATIDTAGRPTYADSVKGRFTISKDGAKNFLYLQMNSLKPEDTAMYYCAAASSDNCRYFPSNLGQGTQVTVSS
notes: as for B3
B10: IG06-hu1 (VHH)
VHH: B8 VHH with G73N, A74S, F77T, L110W
B11: IG06-hu2 (VHH)
VHH: B8 VHH with G73N, A74S, L110W
B12: IG06-hu3 (VHH)
VHH: B8 VHH with L110W
B13: IG06-hu5 (VHH)
VHH: B8 VHH with V48I, S49A
B14: IG06-hu6 (VHH)
VHH: B8 VHH with K43N, G73N, A74S, F77T

biological target: human IGF-1R on human non-small cell lung cancer cells (A549) (human, UniProt P08069 31-1367); assay: cell-based or functional assay
Sequence (P08069 31-1367): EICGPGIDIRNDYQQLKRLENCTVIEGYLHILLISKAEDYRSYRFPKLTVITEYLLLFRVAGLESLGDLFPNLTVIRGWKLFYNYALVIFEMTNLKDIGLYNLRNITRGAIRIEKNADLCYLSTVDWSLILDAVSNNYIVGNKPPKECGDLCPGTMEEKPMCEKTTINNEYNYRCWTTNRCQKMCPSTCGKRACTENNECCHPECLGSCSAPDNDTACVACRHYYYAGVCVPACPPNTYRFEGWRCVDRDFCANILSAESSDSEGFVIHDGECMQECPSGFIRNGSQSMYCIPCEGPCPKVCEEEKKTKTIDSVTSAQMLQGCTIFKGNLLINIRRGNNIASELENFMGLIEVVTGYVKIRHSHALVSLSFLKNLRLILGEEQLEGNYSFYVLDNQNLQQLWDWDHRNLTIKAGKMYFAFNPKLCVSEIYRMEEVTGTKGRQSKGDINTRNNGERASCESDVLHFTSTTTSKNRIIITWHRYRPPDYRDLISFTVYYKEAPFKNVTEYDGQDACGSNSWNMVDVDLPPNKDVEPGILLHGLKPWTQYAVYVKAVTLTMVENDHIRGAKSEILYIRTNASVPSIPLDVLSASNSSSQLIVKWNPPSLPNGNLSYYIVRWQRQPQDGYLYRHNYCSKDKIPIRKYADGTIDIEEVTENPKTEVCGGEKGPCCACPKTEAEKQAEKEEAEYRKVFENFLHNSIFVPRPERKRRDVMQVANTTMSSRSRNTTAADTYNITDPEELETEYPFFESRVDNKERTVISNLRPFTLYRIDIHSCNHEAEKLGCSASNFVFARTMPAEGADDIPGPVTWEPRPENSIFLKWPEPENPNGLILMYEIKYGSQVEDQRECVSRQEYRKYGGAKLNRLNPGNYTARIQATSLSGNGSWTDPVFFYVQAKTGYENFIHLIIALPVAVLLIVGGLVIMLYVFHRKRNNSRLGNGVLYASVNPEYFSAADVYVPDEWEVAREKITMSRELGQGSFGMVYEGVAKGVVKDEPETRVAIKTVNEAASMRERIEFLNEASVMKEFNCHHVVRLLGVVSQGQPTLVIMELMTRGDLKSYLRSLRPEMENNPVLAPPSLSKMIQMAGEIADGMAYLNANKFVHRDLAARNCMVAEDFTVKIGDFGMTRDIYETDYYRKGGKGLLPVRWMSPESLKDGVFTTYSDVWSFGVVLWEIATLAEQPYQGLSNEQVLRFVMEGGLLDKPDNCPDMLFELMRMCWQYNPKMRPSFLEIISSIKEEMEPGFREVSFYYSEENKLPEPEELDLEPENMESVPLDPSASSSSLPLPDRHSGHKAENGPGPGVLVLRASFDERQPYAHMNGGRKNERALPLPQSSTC

For B1, which “IC50 (nM), inhibition of IGF1-induced pAKT signaling in A549 cells” value is on record?
The value was 33.6 nM.

biological target: mouse IGF-1R on mouse myoblasts (C2C12) (mouse, UniProt Q60751 31-1373); assay: cell-based or functional assay
Sequence (Q60751 31-1373): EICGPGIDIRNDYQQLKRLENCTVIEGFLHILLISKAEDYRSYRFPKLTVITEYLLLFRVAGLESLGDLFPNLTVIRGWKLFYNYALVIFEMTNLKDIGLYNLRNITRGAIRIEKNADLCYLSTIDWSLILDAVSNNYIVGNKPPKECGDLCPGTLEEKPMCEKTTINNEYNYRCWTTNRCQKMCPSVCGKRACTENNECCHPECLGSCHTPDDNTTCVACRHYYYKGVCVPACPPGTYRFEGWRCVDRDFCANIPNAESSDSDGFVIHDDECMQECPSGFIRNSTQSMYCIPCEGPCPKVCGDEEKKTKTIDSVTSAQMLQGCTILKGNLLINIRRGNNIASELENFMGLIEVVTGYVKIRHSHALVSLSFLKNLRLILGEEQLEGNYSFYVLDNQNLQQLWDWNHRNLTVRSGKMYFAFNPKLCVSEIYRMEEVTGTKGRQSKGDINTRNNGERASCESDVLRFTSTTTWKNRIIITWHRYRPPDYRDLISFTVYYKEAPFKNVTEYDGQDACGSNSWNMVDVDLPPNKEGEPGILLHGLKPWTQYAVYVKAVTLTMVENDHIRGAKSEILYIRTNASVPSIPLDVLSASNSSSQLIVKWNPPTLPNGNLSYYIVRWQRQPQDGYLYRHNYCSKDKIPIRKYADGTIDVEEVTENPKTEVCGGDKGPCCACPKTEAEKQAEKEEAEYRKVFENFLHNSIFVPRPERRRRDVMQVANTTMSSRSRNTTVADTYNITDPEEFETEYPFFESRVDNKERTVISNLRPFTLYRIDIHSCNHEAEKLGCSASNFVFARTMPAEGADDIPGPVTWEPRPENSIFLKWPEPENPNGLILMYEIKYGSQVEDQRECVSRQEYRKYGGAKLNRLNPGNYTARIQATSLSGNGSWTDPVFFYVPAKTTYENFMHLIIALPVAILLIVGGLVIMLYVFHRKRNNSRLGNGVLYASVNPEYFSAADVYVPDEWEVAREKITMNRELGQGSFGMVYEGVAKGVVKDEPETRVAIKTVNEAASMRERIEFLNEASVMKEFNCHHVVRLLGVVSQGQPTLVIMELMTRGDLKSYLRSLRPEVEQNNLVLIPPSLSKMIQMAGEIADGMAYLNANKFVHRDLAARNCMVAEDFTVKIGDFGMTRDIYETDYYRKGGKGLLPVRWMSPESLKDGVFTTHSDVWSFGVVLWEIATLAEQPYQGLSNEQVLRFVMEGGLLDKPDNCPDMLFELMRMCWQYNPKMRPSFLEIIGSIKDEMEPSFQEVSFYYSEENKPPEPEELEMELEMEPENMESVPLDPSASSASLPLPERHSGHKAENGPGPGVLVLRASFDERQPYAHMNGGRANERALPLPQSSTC

How did the “IC50 (nM), inhibition of IGF1-induced pAKT signaling in C2C12 cells” value turn out when B1 was run?
The value was 4240 nM.

biological target: T1, hIGF-1R-ECD-avi-his (human IGF-1R extracellular region) (human, UniProt P08069 31-935); assay: SPR (Biacore T200), antigen captured by anti-His antibody on CM5 chip, antibody as analyte
T1 construct: It was captured on the chip through its His tag
T1 sequence (P08069 other isoform, or with tags, fused parts or gaps limits assumed): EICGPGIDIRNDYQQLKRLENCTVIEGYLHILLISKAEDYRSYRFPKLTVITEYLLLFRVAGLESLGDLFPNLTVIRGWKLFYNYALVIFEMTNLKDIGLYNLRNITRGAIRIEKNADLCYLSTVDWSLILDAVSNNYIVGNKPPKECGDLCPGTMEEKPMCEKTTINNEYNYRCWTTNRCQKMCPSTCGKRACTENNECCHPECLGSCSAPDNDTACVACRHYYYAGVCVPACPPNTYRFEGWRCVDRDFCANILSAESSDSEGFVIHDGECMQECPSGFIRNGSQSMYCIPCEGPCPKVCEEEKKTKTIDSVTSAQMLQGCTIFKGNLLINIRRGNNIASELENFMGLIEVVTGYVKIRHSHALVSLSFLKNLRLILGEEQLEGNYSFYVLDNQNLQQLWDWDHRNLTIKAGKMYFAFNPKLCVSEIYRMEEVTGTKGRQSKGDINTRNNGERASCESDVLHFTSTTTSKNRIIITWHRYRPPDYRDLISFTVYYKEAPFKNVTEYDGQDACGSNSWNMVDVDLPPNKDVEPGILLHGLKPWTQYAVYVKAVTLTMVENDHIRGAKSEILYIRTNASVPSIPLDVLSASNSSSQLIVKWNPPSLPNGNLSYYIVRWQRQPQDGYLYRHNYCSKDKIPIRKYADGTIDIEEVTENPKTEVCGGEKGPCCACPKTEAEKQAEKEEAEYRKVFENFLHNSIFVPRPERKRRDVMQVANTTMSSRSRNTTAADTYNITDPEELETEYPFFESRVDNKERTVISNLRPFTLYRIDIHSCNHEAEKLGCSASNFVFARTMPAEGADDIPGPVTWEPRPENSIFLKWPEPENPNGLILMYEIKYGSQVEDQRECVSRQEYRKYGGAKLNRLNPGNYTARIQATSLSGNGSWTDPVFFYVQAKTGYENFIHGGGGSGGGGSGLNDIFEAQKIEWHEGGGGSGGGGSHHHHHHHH

For B2, which Kd is on record?
Its Kd is 0.395 nM.

And the koff?
The koff was 0.00072 s⁻¹.

And the kon?
Its kon is 1.82e+06 M⁻¹ s⁻¹.

How did the Kd turn out when B3 was run?
The Kd was 0.346 nM.

And the koff?
Its koff is 0.000749 s⁻¹.

And the kon?
Its kon is 2.17e+06 M⁻¹ s⁻¹.

B4 was tested. Which Kd did it give?
Its Kd is 0.361 nM.

What about the koff of the same binder?
Its koff is 0.000772 s⁻¹.

And the kon?
Its kon is 2.14e+06 M⁻¹ s⁻¹.

Which results are given for B5?
Kd: 0.403 nM; koff: 0.000723 s⁻¹; kon: 1.79e+06 M⁻¹ s⁻¹

With B6 as the binder, how does the Kd read?
The Kd was 0.507 nM.

And the koff?
Its koff is 0.000882 s⁻¹.

What about the kon of the same binder?
The kon was 1.74e+06 M⁻¹ s⁻¹.

For B7, which Kd is on record?
Its Kd is 0.258 nM.

And the koff?
The koff was 0.000474 s⁻¹.

What about the kon of the same binder?
Its kon is 1.83e+06 M⁻¹ s⁻¹.

Which results are given for B8?
Kd: 4 nM; koff: 0.00299 s⁻¹; kon: 748000 M⁻¹ s⁻¹

How did the Kd turn out when B9 was run?
The Kd was 0.889 nM.

And the koff?
The koff was 0.000675 s⁻¹.

What about the kon of the same binder?
Its kon is 759000 M⁻¹ s⁻¹.

How did the Kd turn out when B10 was run?
Its Kd is 29.3 nM.

What about the koff of the same binder?
The koff was 0.0265 s⁻¹.

What about the kon of the same binder?
The kon was 905000 M⁻¹ s⁻¹.

What does the source list for B11?
Kd: 34.7 nM; koff: 0.0277 s⁻¹; kon: 800000 M⁻¹ s⁻¹

Which Kd does the source give for B12 here?
The Kd was 27.3 nM.

What about the koff of the same binder?
Its koff is 0.0231 s⁻¹.

And the kon?
Its kon is 847000 M⁻¹ s⁻¹.

What does the source list for B13?
Kd: 2.67 nM; koff: 0.0024 s⁻¹; kon: 899000 M⁻¹ s⁻¹

Which Kd does the source give for B14 here?
Its Kd is 1.55 nM.

What about the koff of the same binder?
Its koff is 0.00226 s⁻¹.

And the kon?
Its kon is 1.46e+06 M⁻¹ s⁻¹.

biological target: T1, hIGF-1R-ECD-avi-his (human IGF-1R …); assay: as above; remark: another data set of the same source

Which results are given for B1?
Kd: 0.262 nM; koff: 0.00107 s⁻¹; kon: 4.1e+06 M⁻¹ s⁻¹

biological target: T2, mouse IGF-1R (Acro, Cat. IGR-M5223) (mouse, UniProt Q60751 31-936, limits assumed); assay: as above
T2 construct: Bought reagent; also called murine IGF-1R
T2 sequence (Q60751 31-936 limits assumed): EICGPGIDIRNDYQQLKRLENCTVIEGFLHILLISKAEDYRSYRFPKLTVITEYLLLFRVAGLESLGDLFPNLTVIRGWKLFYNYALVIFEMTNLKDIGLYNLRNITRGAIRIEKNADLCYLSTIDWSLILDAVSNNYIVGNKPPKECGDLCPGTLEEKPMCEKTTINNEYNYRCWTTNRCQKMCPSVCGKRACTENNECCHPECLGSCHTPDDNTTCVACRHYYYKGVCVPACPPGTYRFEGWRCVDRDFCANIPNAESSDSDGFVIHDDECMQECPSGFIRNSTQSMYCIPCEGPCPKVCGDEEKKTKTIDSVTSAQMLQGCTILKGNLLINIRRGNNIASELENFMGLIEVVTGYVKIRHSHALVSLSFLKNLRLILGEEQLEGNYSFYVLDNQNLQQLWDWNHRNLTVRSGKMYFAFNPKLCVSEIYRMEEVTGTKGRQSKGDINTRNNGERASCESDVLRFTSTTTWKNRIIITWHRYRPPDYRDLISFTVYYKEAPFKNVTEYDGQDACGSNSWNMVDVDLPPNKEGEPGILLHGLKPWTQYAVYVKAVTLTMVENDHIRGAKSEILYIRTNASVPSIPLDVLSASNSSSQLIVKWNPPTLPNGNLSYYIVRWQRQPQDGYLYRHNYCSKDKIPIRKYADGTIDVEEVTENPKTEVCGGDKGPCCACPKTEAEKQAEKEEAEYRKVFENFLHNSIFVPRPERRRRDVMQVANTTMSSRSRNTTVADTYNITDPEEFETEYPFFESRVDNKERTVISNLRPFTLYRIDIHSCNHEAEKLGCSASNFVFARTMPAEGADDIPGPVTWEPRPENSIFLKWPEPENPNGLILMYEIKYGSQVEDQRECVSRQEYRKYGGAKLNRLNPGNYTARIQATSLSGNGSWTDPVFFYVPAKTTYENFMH

How did the Kd turn out when B1 was run?
The Kd was 0.337 nM.

And the koff?
Its koff is 0.00112 s⁻¹.

What about the kon of the same binder?
Its kon is 3.32e+06 M⁻¹ s⁻¹.
